B1: 11F10 (antibody, V domains shown)
VH: QVTLKESGPVLVKPIETLTLTCTVCGFSLSNPRMGVSWIRQPPGKALEWLGHIFSSDEKSYRLFLRSRLSISKDTSKSQVVLTMTNMDPVDTATYYCARDSSDYEGYFDYWGQGTLVTVSS
VL: EIVMTQSPATLSVSPGERTTLSCRASQSVGSNLAWYQQKPGQAPRLLIYGASTRASGVPARFSGSGSGTEFTLTISSLQSEDFAVYSCQEYNNWPFTFGQGTKVEIK
notes: Hybridoma supernatant (AlivaMab mouse); captured/detected via mouse Fc
B2: 21E11 (antibody, V domains shown)
VH: QVTLKESGPVLVKPTETLTLTCTVSGFSLSNVRMGVSWIRQPPGKALEWFAHIFSSDEKSIRRSLRSRLTLSKDTSKSQVVLTMTNMDPVDTATYYCARDSSNYEGYFDFWGQGTLVTVSS
VL: DMVVTQSPATLSVSPGERATLSCRASQSVGSDLAWYQQPPGQSPRLLIYGASTRATGVPARFSGSGSGTDFTLTITSLESEDFAVYYCQQYNDWPFTFGPGTKVDIK
notes: as for B1
B3: 49B11 (antibody, V domains shown)
VH: B2 VH with F110Y
VL: B2 VL with D1E, V3E, S28N, V29I, P39Q, P40S, S43A, Y49S, A60T, E79Q
notes: as for B1
B4: 19A9 (antibody, V domains shown)
VH: B2 VH with K5E, V32A, L47P, S56T, I61L, R63L, F110Y
VL: EVVMTQSPATLSVSPGERATLSCRASQSVNRNLAWYQQKPGQAPRLLIFGTSTRATGIPARFSGSGSGTEFTLTIDSLQSEHSGLYYCQQYNDWPFTFGPGTKVDIK
notes: as for B1
B5: 14C11 (antibody, V domains shown)
VH: B2 VH with S30N, V32A, S56T, I61F, R63T, F110Y, T115I
VL: EIVMTQSPATLSVSPGERATLSCRASQSVSNNLAWYQQKPGQAPRLLIYGASTRATGVPARFSGSDSGTEFSLTISSLQSEDFAVYFCQQYKDWPFTFGPGTKVEIK
notes: as for B1
B6: 12B2 (antibody, V domains shown)
VH: B1 VH with I15T, C25S, F64S, A98V, D103N, E105G
VL: EVVMTQSPATLSVSPGERATLSCRASQSVINNLAWYQQKPGQAPRLLIYGTSTRATDIPARFSGSGSGTEFTLTISSLQSEDFAVYYCQDYNNWPFTFGPGTKVDIK
notes: as for B1
B7: 29D5 (antibody, V domains shown)
VH: B2 VH with V32P, I39L, S56T, I61Y, R62S, R63P, S67G, L71V, M84L, F110Y
VL: KIVMTQSPATLSVSPGERATLSCRANQIVSSNLAWYQQKPGQAPRLLVFGTSTRATGIPIRFSGSGSGTEFTLTVSSLQSEDFAVYVCQQYNDWPFTFGPGTKVDIK
notes: as for B1
B8: 21E7 (antibody, V domains shown)
VH: B2 VH with K5E, V32A, L47P, S56T, I61L, R63L, F110Y
VL: B4 VL with E1D, M4L, R31S, K39N, T51S, R61S, D76N, G84A, L85V
notes: as for B1
B9: 20B9 (antibody, V domains shown)
VH: QVTLKESGPVLVKPTETLTLTCTVSGFSLSNARMGVSWIRQPPGKALEWLGHIFSTDEKSYSTSLRGRITISKDTSRGLVVLTLTNMDPVDTATYYCARDSSNYEGYFDFWGPGFLVTVSS
VL: EIVMTQSPATLSVSPGERATLSCRVSQSIGANLAWYQQKFGQAPRLLIYGASTRATGIPVRFSGGGSGTEFTLTISSLQSEDFAIYSCQQYIYWPFTFGPGTTVDIK
notes: as for B1
B10: 14C11.HL scFv-Fc protein (Fc fusion)
chain: QVTLKESGPVLVKPTETLTLTCTVSGFSLNNARMGVSWIRQPPGKALEWFAHIFSTDEKSFRTSLRSRLTLSKDTSKSQVVLTMTNMDPVDTATYYCARDSSNYEGYFDYWGQGILVTVSSGGGGSGGGGSGGGGSGGGGSEIVMTQSPATLSVSPGERATLSCRASQSVSNNLAWYQQKPGQAPRLLIYGASTRATGVPARFSGSDSGTEFSLTISSLQSEDFAVYFCQQYKDWPFTFGPGTKVEIK
notes: HL: heavy-chain variable domain at the N-terminus; not shown: human IgG1 Fc moiety
B11: h62G7-L6/EQ scFv-Fc protein (Fc fusion)
chain: DVVMTQSPLSLPVTLGQPASISCKSSQSLLYSNGKTYLNWFQQRPGQSPRRLIYQVSKLDSGVPDRFSGSGSGTDFTLKISRVEAEDVGVYYCGQDTHFPLTFGGGTKVEIKGGGGSGGGGSGGGGSGGGGSQVQLVQSGAEVKKPGASVKVSCKASGYTFTDYTLHWVRQAPGQGLEWMGGIWPITGGTTYNQKFKGRVTMTRDTSTSTVYMELSSLRSEDTAVYYCARGEAQGSWGQGTLVTVSS
notes: not shown: human IgG1 Fc moiety
B12: C6.HL scFv-Fc protein (Fc fusion)
chain: QVQLVQSGAEVKKPGSSVKVSCKASGDTFSSNAISWVRQAPGQGLEWMGVIIPIFGTADYAQKFQGRVTITADESTSTAYMELSSLRSEDTAVYYCARHTYHEYAGGYYGGAMDPWGQGTLVTVSSGGGGSGGGGSGGGGSGGGGSELQSVLTQPPSASGTPGQRVTISCSGSSSNIGSNYVYWYQQLPGTAPKILIYRNNQRPSGVPDRFSGSKSGTSASLAISGLRSEDEADYYCAAWDDNLSGWVFGTGTKLTVL
notes: as for B10
B13: 14C11.LH scFv-Fc protein (Fc fusion)
chain: EIVMTQSPATLSVSPGERATLSCRASQSVSNNLAWYQQKPGQAPRLLIYGASTRATGVPARFSGSDSGTEFSLTISSLQSEDFAVYFCQQYKDWPFTFGPGTKVEIKGGGGSGGGGSGGGGSGGGGSQVTLKESGPVLVKPTETLTLTCTVSGFSLNNARMGVSWIRQPPGKALEWFAHIFSTDEKSFRTSLRSRLTLSKDTSKSQVVLTMTNMDPVDTATYYCARDSSNYEGYFDYWGQGILVTVSS
notes: LH: light-chain variable domain at the N-terminus; not shown: human IgG1 Fc moiety

Where a chain is given by its changes, count along the chain named.

The first test has as its target T1, 8-histidine tagged recombinant wild-type protein EGFRwt (UniProt P00533 25-645, limits assumed).
T1 construct: not shown: 8-histidine tag
Description: SPR, captured by anti-mouse Fc.
With B1, the binding result was “no binding (tested: 1000 nM)”.

With B2, the binding result is “no binding (tested: 1000 nM)”.

Take B3: the binding result is given as “no binding (tested: 1000 nM)”.

Turning to B4, the binding result is “no binding (tested: 1000 nM)”.

Take B5: the binding result was “no binding (tested: 1000 nM)”.

In the case of B6, the binding result is given as “no binding (tested: 1000 nM)”.

With B7, the binding result is “no binding (tested: 1000 nM)”.

For B8, the binding result is listed as “no binding (tested: 1000 nM)”.

Consider B9, for which the binding result is listed as “no binding (tested: 1000 nM)”.

The next test concerns the target T1, 8-histidine tagged recombinant …. Description: SPR, captured by anti-human Fc, 25 C. For orientation: SPR reads the build-up and loss of mass on a sensor chip optically.
Consider B10, for which the binding result is recorded as “no binding (tested: 1000 nM)”.

On to B11, for which the binding result was “no binding (tested: 1000 nM)”.

In the case of B12, the binding result is “no binding (tested: 1000 nM)”.

With B13, the binding result is “no binding (tested: 1000 nM)”.

For a further test, the target named is T2, Monomeric 8-histidine tagged human EGFRvIII extracellular domain (human, UniProt P00533 298-645).
T2 construct: Analyte in all SPR assays; not shown: 8-histidine tag
Description: SPR, captured by anti-mouse Fc, 37 C. The source says: To generate human antibodies against EGFRvIII, transgenic AlivaMab mice (Ablexis LLC, San Francisco, Calif.) were immunized with alternating schedule of paraformaldehyde-fixed rat glioblastoma cell line expressing EGFRvIII, F98-npEGFRvIII (American Type Culture Collection, Manassas, Va.) and peptides (SEQ ID NO: 227: […]) directed to the junction region in EGFRvIII. Hybridomas were generated using standard techniques. To determine the binding affinity and specificity of these hybridomas to EGFRvIII, antibodies in culture supernatants were captured by anti-mouse Fc using Biacore™ T200 biosensor equipped with anti-mouse Fc coupled CM4 sensor chips (Biacore™ AB, Uppsala, Sweden—now GE Healthcare). Monomeric 8-histidine tagged human EGFRvIII extracellular domain was then injected as the analyte at 10-fold dilution series starting with top concentration 1000 nM. Affinity of anti-EGFRvIII antibodies towards human EGFRvIII was measured at 37° C.
In general, Kd refers to the constant that tells how readily two partners part at equilibrium. A higher Kd goes with lower affinity. The term koff denotes a measure of how fast the partners let go of each other. A low value points to slow dissociation. Usually kon stands for the second-order rate constant of association. Regarding B1, the Kd is 42.4 nM, the koff is 0.00281 s⁻¹ and the kon stood at 66300 M⁻¹ s⁻¹.

Regarding B2, the affinity, expressed as Kd, was 9.5 nM; the dissociation rate constant (koff) was determined as 0.000632 s⁻¹; the kon turned out to be 66600 M⁻¹ s⁻¹.

As to B3, the Kd came to 9.1 nM, the koff was 0.000695 s⁻¹ and the kon turned out to be 76400 M⁻¹ s⁻¹.

Regarding B4, the Kd was 18.6 nM, the koff came out at 0.00104 s⁻¹ and the kon came out at 55800 M⁻¹ s⁻¹.

In the case of B5, the affinity, expressed as Kd, was 78.5 nM; the koff turned out to be 0.00593 s⁻¹; the association rate constant (kon) was determined as 75500 M⁻¹ s⁻¹.

Consider B6, for which the Kd is 24.3 nM, the koff was 0.00179 s⁻¹ and the on-rate constant (kon) worked out at 73800 M⁻¹ s⁻¹.

Turning to B7, the equilibrium dissociation constant (Kd) worked out at 41.6 nM, the dissociation rate constant (koff) was 0.00424 s⁻¹ and the kon worked out at 102000 M⁻¹ s⁻¹.

In turn, B8 registered a dissociation constant Kd of 19.9 nM, a koff of 0.0013 s⁻¹ and an on-rate (kon) of 65200 M⁻¹ s⁻¹.

B9 yielded a dissociation constant (Kd) of 32.1 nM, a koff of 0.0015 s⁻¹ and an association rate constant (kon) of 46700 M⁻¹ s⁻¹.

The target in another test is T3, human EGFRvIII expressed on cells (human, UniProt P00533 298-1210).
T3 construct: the F98-npEGFRvIII line was obtained from ATCC and its construct is not described; also called F98-npEGFRvIII; F98-EGFRvIII
Kind of test: flow cytometry, F98-npEGFRvIII cells. A general note: A flow cytometer gives signals particle by particle.
With B1, the “% positive” value was determined as 98% and the MFI amounted to 3280.

As for B2, the “% positive” value is 98.5% and the MFI amounted to 3100.

Take B3: the “% positive” value was found to be 98.5% and the MFI was found to be 2980.

B4: the “% positive” value came out at 98.1% and the MFI turned out to be 3100.

Turning to B5, the “% positive” value stood at 98.2% and the MFI came out at 3210.

As for B6, the “% positive” value is 97.9% and the MFI was determined as 2750.

As for B7, the “% positive” value was determined as 97.9% and the MFI turned out to be 2830.

Take B8: the “% positive” value was 98.5% and the MFI came to 3100.

As for B9, the “% positive” value worked out at 98.3% and the MFI stood at 3420.

The next test addresses T2, Monomeric 8-histidine tagged human …. Description: SPR, scFv-Fc captured by anti-human Fc, 37 C. How it is done: The scFv fragment was then fused to human IgG1 Fc moiety to facilitate recombinant expression and purification. Affinities of the scFv-Fc fusion proteins were measured at 37° C. on a surface plasmon resonance Biacore™ T200 biosensor equipped with an anti-human Fc coupled CM4 sensor chip (GE Healthcare Inc., Piscataway, N.J.) as described above. scFv-Fc proteins were captured by anti-human Fc. Monomeric 8-histidine tagged human EGFRvIII extracellular domain was then injected as the analyte at 10-fold dilution series starting at 1000 nM.
As to B10, binding was put at a Kd of 104 nM, the koff was found to be 0.0043 s⁻¹ and the kon came out at 42000 M⁻¹ s⁻¹.

B11 showed a Kd of 101 nM, a koff of 0.076 s⁻¹ and an on-rate (kon) of 750000 M⁻¹ s⁻¹.

As to B12, the Kd came out at 1060 nM, the off-rate (koff) was 0.02 s⁻¹ and the association rate constant (kon) was determined as 19000 M⁻¹ s⁻¹.

B13 returned a Kd of 136 nM, a dissociation rate constant (koff) of 0.0065 s⁻¹ and a kon of 48000 M⁻¹ s⁻¹.

A further test has as its target T3, human EGFRvIII expressed on cells. Kind of test: flow cytometry, F98-npEGFRvIII against F98, F98-EGFRwt and A431 cells.
As to B1, the “fold MFI on EGFRvIII expressing cell line over non-expressing cell lines” value (“fold MFI … over non-expressing cell lines” below) is at least 10 fold.

B2: the “fold MFI … over non-expressing cell lines” value is at least 10 fold.

In the case of B3, the “fold MFI … over non-expressing cell lines” value was at least 10 fold.

Consider B4, for which the “fold MFI … over non-expressing cell lines” value was at least 10 fold.

On to B5, for which the “fold MFI … over non-expressing cell lines” value is at least 10 fold.

With B6, the “fold MFI … over non-expressing cell lines” value was at least 10 fold.

B7: the “fold MFI … over non-expressing cell lines” value is at least 10 fold.

With B8, the “fold MFI … over non-expressing cell lines” value was at least 10 fold.

Take B9: the “fold MFI … over non-expressing cell lines” value was at least 10 fold.

The values are drawn from US20190144550A1 (Pfizer, published 2019).
